In a protein production outcome set (Wang et al. 2014):

Assay: label from the status in PepcDB records
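Also: failed if final PepcDB status was selected cloned or expressed and not failed if soluble or beyond.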

| Sequence | protein production |
| --- | --- |
| MELNAVKSSYARWAPIYDKTFGAITNVGRHAAVDYINAHDATELLEVGVGTGLSLPNYRPGLKVTGIDFSEEMLAKARAKVESLGLGHVQSLRQMDARDLDFADASFDVVAAMHIISVVPEPERVMAEMARVCKPGGLIVITNHFARDSGMLARVERFAAPFANLLGWHPDFEISSVLKQPLEHHHHHH | failed |
| MELQHGQQRHIFEIRLFPEFDKAGMLKSILSVDRDVTATRQGERLLAEENEVLEMIAGNHPLPQTLEQICQMMESQQPGSMCSVLLLEEDGQSLRFAAGLSLPPAYRKLSERVAVGPSVGSCGTAAHWKRTIVVDDIQTSPLWAHALHKVQPFGLRACWSMPIFSSDRQLLGTLATYYREPRSPSQEELALAQRITRIIAIALQRDGHEKQLYRLATQDGLTELNNRRQFIELADREIERSRRHGSRMSVLMMDLDHFKDINDHYGHAVGDEVIRHFSQVCREVLRASDLCGRLGGEEFAAVLPDTGLDDARQVAERLRSLASSARLSAVSGSLGYTVSIGVAERHADETDIDEVLGRADKQLYQAKRDGRNRVSGAAPAHCG | failed |
| MELSQRQERIIEIVKTKGPITGEQIADKLNLTRATLRPDLAILTMSGFLEARPRVGYYYSGKSKGKFFNEKLRQFEVKDYMSQPVVLRENTTVYDAICTIFLEDVSTLFIINEDNDFVGVCSRKDLLRASMIGADIHTVPISVNMTRMPNVTYLEESELVIYAADRMIEKEIDSIPIVRKKDNQKYEVIGRISKTTIAKLLVALYKE | not failed |
| MELTELLDIGRQERSQQKPVQIRCCTAAGCLSANSQAVQQQLEQAVKAEGLEGEVQVSGVGCMRLCCQGPLVEVEGSGEEKTKQRLYEKVTPEDASAIIGAL | failed |
| MELVFDKDGLSAYLEEVFPQIQGEFSIDALAKGEITMRLNVQERHLRPGGTVSGPSMFALADVSVYALVLAHLGREALAVTTNASLDFMRKPESGRDLLGQARLLKLGRTLAVGDILLFSEGMEAPVARSTMTYSIPPKR | not failed |
| MEMNRRRSRGFMIAKLMPFCKAVKSPTPSQDLYNNVHYTSSTTTSYARQPDFNNYVTATTPLPPKVSFLLQPSLAPEGKDMEKKLNMMAEKLIGRGINGVDDCVDARAASYISSVRERFKADQYCEKLTTVISLDDEN | failed |
| MENDDVMTPPWLTPMLRADYFVTCSIHSQSSKSECNLFCLDCSGNAFCSSCLAHHRTHRVIQIRRSSYHNVVRVSEIQKHIDISCIQTYVINSAKIFFLNARPQCRTGKSLNKTCQICSRNLLDSFLFCSLACKLEGVKNGEDPNLTLFHSGKSDDSSKIINTGICSRLIDGISIAVDDQRSETAGVLSPETPSIESHRNYPMKSRRKGIPQRAPF | failed |
| MENEENSAREQEADDFLHIASVKEDWGGDGRGRMNLSGRRTAIAKEYLPRQYQFFDTNTVMEKQGWRVRGMPDNIAPGSRRLLTWHDSGASTSRVVLPPKFEAPSGIFTADLEIFVIKGAIQLGEWQLNKHSYSFIPAGVRIGSWKVLGGEEAEILWMENGSVPLEYKYAQEDHPDARLSDFIPALDSKLLPWGKADTVQFVQANKKWLRKDINGGGVWLLAILPHFDNKYQMIQPYNEEGYCLTGYCDVGDYRIVKDHYWYCPSFSTLPRHITDDGGLFFVRVDRDLSKVATVLSYAPQDT | not failed |
| MENETVSELNQTQLQPRAVVALEYQVVTILLVLIICGLGIVGNIMVVLVVMRTKHMRTPTNCYLVSLAVADLMVLVAAGLPNITDSIYGSWVYGYVGCLCITYLQYLGINASSCSITAFTIERYIAICHPIKAQFLCTFSRAKKIIIFVWAFTSLYCMLWFFLLDLNISTYKDAIVISCGYKISRNYYSPIYLMDFGVFYVVPMILATVLYGFIARILFLNPIPSDPKENSKTWKNDSTHQNTNLNVNTSNRCFNSTVSSRKQVTKMLAVVVILFALLWMPYRTLVVVNSFLSSPFQENWFLLFCRICIYLNSAINPVIYNLMSQKFRAAFRKLCNCKQKPTEKPANYSVALNYSVIKESDHFSTELDDITVTDTYLSATKVSFDDTCLASEVSFSQS | failed |
| MENGLAQGIGGIAFLVGVMAFWQKDDLRFRYQMMAFCFIMGVHFALLGATVAAIGVVINGIRSFASIKTQSRKVMWFFIALMWLMTLPNMSHFFELLTVIGSSVATWALFSKQGIALRSLILFNSFCWVSHNLWLGSIGGSLVESTFIVTNLLTIYRLFHAQERISQTQNNQFLASNTESSTD | failed |
| MENRSHALLAGLFTLALLVAAALVAIWVGRDRAALKPYVIVSATSVSGLSAQSTVRYQGVPVGKVQSLGFNPDKPAQVRISIGVAPDTPITESTWAELGVQGVTGLGNIELRDDGTSTRRLASSAAMPATIPLRPGFFQRFEQRGGEILHNVEQVSARLERLLSNENVQATTATLQNIAAITTDLRQAATELRPALAQVPPLVDSLQAMSRNTGQAAQEIAGLAQAARQALARLDAPDGPLAMATRSMRDIAWAAARLDAQTLPAVSGMASSIDSAARSATTTLRRVGDTPQSLLFGPPPTVPGPGEPGFAGFGR | failed |
| MENWDLSSDEMQDGNAPELDVIEEHNPVTRDDENANPEEVVGDTRSPVQNILGKFEGDINKRLHIKRKRMETYIKDSFKDSNVKLEQLWKTNKQERKKINNKFCEQYITTFQKFDMDVQKFNEEQEKSVNNYQKEQQALKLSKCSQSQTLEAIKDMHENYMEGLMNLETNNYNMLFDVDGELRKEMSVFKKDLMKHTLKYSSSFPSSD | failed |
| MEPCLHPTLVDETSLVLYLDLARETGYRYVDVPFHWLEAEAERHGDAAVEAMFQRRGLVLANLGLPLNLYDSEPVFLRELSLLPDRARLCARLGARSVTAFLWPSMDEEPVRYISQLARRIRQVAVELLPLGMRVGLEYVGPHHLRHRRYPFVQSLADLKTFWEAIGAPNVGALVDSYHWYTAGEHEDDLAQLPPEKVVYVHINDTRDAPEDAHDGKRLLPGDGRIPLVPFLRGLYLAGYRGPVAAEVLHETPLDGTGESRARLVRERLEKLIALAKGEN | not failed |
| MEPHAESAAAGQAAPPEKRRASWFTRMGRVVRFAGQRADEQKLLQVASSLTFTTVLAIVPMLAVVLSLFTAFPVFQEFRVALEDFLANSLMPPSVSDNIMDYLNQFARQATRLTAIGGAFLIVTSLLLIMTIDKTFNDIWQVTRQRPLPQRALVYWAVITLGPVVAGASLWATSFVARESLGLVRDVPEAVSVAISFIPLVLTGLGFAALFVVVPNRRVYWKDALVGGFGTAIVLELMKAGFAYYLTRFPAYTVIYGAFATLPIFLLWIYLSWLAVLFGATVAASAPLIRLGRWEINRHAGAPFIDALGVLRVLHAAQGSRPAGRSANALAKRLRLHHDELNAVLEALEDMELVARTAEQRWVLTCDPRTTTLEPVFDRFLLDRGQPRLRDEPEIAAVAAGVLGQGPDPTLADLAGVAQNTDIGPAAAVLQLETGKK | failed |
| MEPSCTQNGMKPKLKISDLSRSLGPGIMMAAAAVGGSHLVASTKAGAIYGWEMLLLILAVNLLKYPFFRAGVQYTLGTGDSIIQGYHKLGRGYLWVFLVLSAISAVVNTAALLLFSASLLGYFLPFDLSLNVLSSIVLITCITILFAGHFKALDKLSKLIMATLTIATTIALGVAFSNGAVAPTDYQGPSVWSIASIGFLVITMGWMPAPIEISSITSMWLKRQCQTQKVTPQSALFDFNVGYIGTAILAVVFLSLGALVLYGSGIEFKASGIGFSHQLVGIYAATIGEWSRYLIAVIAFFCIFGSTITVIDGYSRAVSEAQLLLQRKPLNQPKHYNSWVMIVSVLAITIVTLFISSLMSMLDFAMIMAFITTPIFAALNYILVTKTELPDELRMGAKLKALSIVGLIYLFGFLAIFVWWKWLM | failed |
| MEQDASAKNPDIETENKGAISEEEALIQREYSLLIQDYLNSNHRRKVEKIDKAFHLAKDAHAGAKRRSGEPYILHPIAVARIVCQEIGLGSTSICCALLHDVVEDTEYTVEDMRDMFGDKVAQIVDGLTKISGEVFSNSSAQAENFRKLILTMNDDIRVILIKIADRLHNMRTLDSMLPAKQMKIAGETQYVYAPLAHRLGLFAIKSELEDLSFKYEHPQEYEAIKEKIRITEQHRLEMFEHFAAPLKQRFAGMDMSYEMKARVKSVYSIWKKMEKKGVPFEEIYDLFAVRIIFESSPTIPDKNRCWEIYSAITDIYRNRPDRIRDWVSNPKSNGYQALHLTVMGPDGEWVEVQIRSRRMDDIAEKGFAAHWKYKGDNVEEDSELEKWLSTIQEILENPNPNALDFLDTIKLNLFSNEVMVFTPKGEIKRLPQGATALDFAYSLHSDLGDHCIGAKVNHKLVPLSYVLNSGDQVEVLSSKSQQPTEEWLRYVTTARAKSKVDTFLRRKRRELINRGEERVVSVIRTSESMVSAELLDRIAAYFGFLNRETFFYAVGTGTVSLPESFKKLLQGEHSGNFLMRAIRSALKAGKSNKTSSPSGKPAEKEDKKAYNTKKTYILQEDEFSRNYQIAECCKPIPGDDAFGFINDDNTVVVHKRSCPIAMRLKSSFGNRILSTEWSLHSRTSFEAKLALKGIDSTGILTAVTQVISEDFNVGIKHIQLTAKDGIFEGQIHLLVHSSDDLLKICHQLRQNKYIQSVGRIS | failed |
| MEQDTQHVKPLQTKTDIHAVLASNGRIIYISANSKLHLGYLQGEMIGSFLKTFLHEEDQFLVESYFYNEHHLMPCTFRFIKKDHTIVWVEAAVEIVTTRAERTEREIILKMKVLEEETGH | failed |
| MEQHIGELIAHYGYFGIVIALAGGIVGLPIPDEFLLTFVGYNVSKGVMSGTAAFLSGLAGAMLGITLSYILGLKLGLPVLKKYGPKIRIKEHHIEKTHILFEKYGPFLLMIGYFIPGVRHLTAYFAGVSNLTLWRFCLYAYGGALIWISVFIGLGWKLGEKWRFVEYSLHHYGIWILLISAVVTCFVWLYIKKKKNR | failed |
| MEQIITDFISKWGYTAIFILILLENVLPVVPSEIILTFAGLLSVKSHLSIWTLLIIATIASFIGLLILYYICRLISEEKLYRFVDRHGKWMKLKSKDLKRANDWFKKYGAWAVFLCRFVPVLRVLITIPAGINRMNVIQFTTLSLIGTTIWNFALILLGRLLSDSFDALMNGIHTYSRIMYVIIIIAVIYFVIRYLMKRRRSVK | failed |
| MEQLQIGDIKVTWLKGGNTHLDGGAMFGVVPKVLWSRKYKHNDTNHIYLRTDPLLLQTKDGNMLIDSGIGNGKLNEKMKRNQGVTEESSVYESLEKLGLKPEDIDYVLMTHLHFDHASGLTKWEDDHLVPSFPNAKVYVSETEWNEMRNPNIRSRNTYWKENWEPIVDQVVTFQQEIEITDEIKMARTGGHSDGHAVIALESQGETMLHLADLLPTHAHQNVLWVMAYDDYPMTSIENKQKWMKYGAEKEAWFTFYHDAYYRAVKWNEEGHIVEKIERKTSIEA | failed |
| MEQQRSFQTETGGHLYLVPTPIGNLDDMTFRAVKTLTAVDLIAAEDTRNTQKLLNHFEITTKQISFHEHNTQERIPQLIAKLKQGMQIAQVSDAGMPSISDPGHELVNACIDAHIPVVPLPGANAGLTALIASGLAPQPFYFYGFLDRKPKDRKAEIAGLAQRPETLIFYEAPHRLKKTLQNLAAGFGDERPAVLCRELTKRYEEFLRGSLAELANWAATDTVRGEFVVLVGGNPAPTTAATTAVDLSEPIDVQVDRLIAAGEKPNDAIKEVAKLRGAKKQEIYRQYHHLDEE | not failed |
